A short description of data set [1]: In vitro plasma stability and predicted half-life (HPLC main peak area, Example 3). It counts as in vitro ADME. The following applies: human plasma (EDTA anticoagulant), 37°C, sampled up to 24 h, predicted half-life calculated with Winolin. On the procedure: The modified peptides in this study were designed with non-natural amino acid substitutions at certain non-essential positions to enhance peptide stability and improve druggability. Peptides were dissolved in deionized water to 2 mg/mL, then diluted with acetonitrile to 1 mg/mL and filtered through an organic membrane. 200 µL of the filtrate was transferred to an LC vial as the peptide control. 300 µL of human plasma (comprising EDTA as anticoagulant, Nanjing Senbeijia Biotechnology Co., Ltd., Lot No. SBJ-P-HU011-100 mL) was mixed with 300 µL acetonitrile, centrifuged at 4°C and 12,000 rpm for 5 minutes. The supernatant was filtered through an organic membrane, and 200 µL of the filtrate was transferred to an LC vial as the plasma blank control. For peptide samples, 10 mg of peptide was weighed mixed with 5 mL of human plasma and vortexed thoroughly. 300 µL of peptide-containing plasma was mixed with 300 µL acetonitrile, centrifuged at 4°C and 12,000 rpm for 5 minutes, and the supernatant was filtered through an organic membrane. 200 µL of the filtrate was transferred to an LC vial as the 0 min sample. Peptide-containing plasma was incubated in a 37°C water bath, and samples at other time points were collected using the same procedure as the 0 min sample. For peptides AJ003 and AJ003-1, the sampling time points were 0 min, 5 min, 10 min, 20 min, 30 min, 1 h, 2 h, 4 h, 6 h, 10 h, 12 h, and 24 h. For modified peptides AJ003-34, AJ003-35, AJ003-36, AJ003-37, AJ003-38, AJ003-39, AJ003-40, AJ003-41, and AJ003-42, the time points were 0 min, 10 min, 30 min, 1 h, 4 h, 6 h, 10 h, 12 h, and 24 h. All peptide sample series were analyzed by HPLC, recording the changes in main peak areas over plasma incubation time. Predicted in vitro half-lives were calculated using the pharmacokinetic software Winolin. Due to the presence of tautomers, AJ003 peak areas were difficult to integrate accurately over time. AJ003-1 is an analog of AJ003 in which the threonine at position 5 is substituted with D-threonine; its sequence differs from AJ003 by only one amino acid configuration. […] The in vitro plasma half-lives of modified peptides AJ003-34, AJ003-35, AJ003-36, AJ003-37, AJ003-38, AJ003-39, AJ003-40, AJ003-41, and AJ003-42 were 61.9 h, 45.3 h, 65.3 h, 71.0 h, 26.7 h, 43.0 h, 84.0 h, 30.0 h, and 61.4 h, respectively.

The test system of data set [2] is rat paclitaxel-induced chronic chemotherapy pain model. Nature of the data set: Rat paclitaxel chemotherapy pain model, same dose (Example 5). It counts as in vivo. The following applies: 1 mg/kg s.c. As to the method: Male SPF (Specific Pathogen Free) SD rats weighing 180-200 g (Shanghai Institute of Planned Parenthood Research, Experimental Animal Department) were used. On the day of model induction, rats were weighed, and baseline mechanical pain thresholds were measured. Animals with large differences in body weight or pain threshold were excluded, and the remaining rats were subjected to the experimental protocol. Paclitaxel powder was dissolved in olive oil to 1 mg/mL. Each rat received an intraperitoneal injection of 2 mg/kg per dose. Four injections were administered on days 1, 3, 5, and 7. Rats in the negative control or vehicle control group received injections of the solvent used to dissolve paclitaxel. […] The blank group in Table 4 represents rats without pain modeling, and the model group represents rats with pain modeling but no drug treatment. On days 1, 3, 5, and 12, drugs were administered at fixed times. On days 1, 3, and 5, mechanical pain thresholds of the right hind paw at the corresponding time were measured at 1 h, 2.5 h, 4 h, and 5.5 h after dosing using a blunt probe. On day 12, mechanical pain thresholds were measured at 4 h and 7 h after dosing. […] AJ003-36 and AJ003-40 were thus identified as candidate molecules for further study. Paclitaxel is a widely used small-molecule chemotherapy drug that, while effective against tumors, can induce neuropathic pain in many cancer patients due to neurotoxicity. The chronic chemotherapy pain model induced in male SD rats via multiple low-dose intraperitoneal injections of paclitaxel simulates clinical chemotherapy-induced neuropathic pain. Using this model, the analgesic effects of five modified peptides, the parent peptide AJ003, and the positive control pregabalin were evaluated. […] Table 4 Dosing Scheme for Screening Analgesic Activity of Selected Modified Peptides at the Same Dose in the Paclitaxel Chemotherapy Pain Model

For data set [3], the target named is α7 nAChR (Homo sapiens, UniProt P36544). As to the kind of experiment: BLI (biolayer interferometry) affinity of peptides to α7 nAChR. It counts as binding. More on the design: inferred from the 'similar' procedure on NTA sensors. The following applies: NTA sensor, α7 nAChR 20 µg/mL, peptide 1.372-1000 nM in PBS. The source says: BLI is a label-free technology that converts optical interference signals occurring on the surface of BLI biosensors into real-time response signals. By monitoring the molecular binding process in real time, the system determines association rate constants (ka or kon), dissociation rate constants (kd or koff), and initial binding rates, and calculates affinity (KD) by fitting analysis. Here are the specific procedures: NTA sensors (Sartorius) were placed in a pre-wetting tray, which was then positioned in a black 96-well plate with 200 µL PBS per well. The NTA sensors were pre-wetted for at least 15 minutes. The target protein α9 nAChR was diluted in PBS to 5 µg/mL, with 200 µL added per well. Test peptides were dissolved in PBS and serially diluted threefold, with concentrations from high to low as 1000 nM, 333.3 nM, 111.1 nM, 37.04 nM, 12.35 nM, 4.115 nM, and 1.372 nM, with an additional well with PBS only as a zeroconcentration control. After equilibrating the instrument baseline, the NTA sensor was used to immobilize the target protein α9 nAChR. Once immobilization was complete, the baseline was re-equilibrated, followed by a 5-minute association and a 5-minute dissociation phase. Affinity measurements of the test peptides were conducted sequentially using the above procedure. The procedure for measuring peptide affinity to α7 nAChR was similar, except that the α7 nAChR concentration was 20 µg/mL. Tables 2 and 3 show the BLI-determined affinities of alanine-scan peptide analogs with target proteins, which identified sites on the parent peptide suitable for modification. Subsequently, single-site non-natural amino acid substituted peptides were evaluated by BLI for target protein affinity. Finally, multi-site combinatorial modified peptides were measured for affinity by BLI, leading to the selection of high-affinity peptides for further screen and drug development potential. Table 2 Test Results for Affinity of Modified Peptides to α9 nAChR

A further data set concerns the target T1, α9 nAChR (human, UniProt Q9UGM1 23-238).
T1 construct: also called target protein α9 nAChR; α9 nicotinic acetylcholine receptor
Nature of the data set: BLI, α9 nAChR captured on NTA sensor, peptide 1.372-1000 nM in solution.

In data set [4] the target is T2, α7 nAChR (human, UniProt P36544 23-233).
T2 construct: also called target protein α7 nAChR; α7 nicotinic acetylcholine receptor
T2 sequence (P36544 23-233 limits assumed): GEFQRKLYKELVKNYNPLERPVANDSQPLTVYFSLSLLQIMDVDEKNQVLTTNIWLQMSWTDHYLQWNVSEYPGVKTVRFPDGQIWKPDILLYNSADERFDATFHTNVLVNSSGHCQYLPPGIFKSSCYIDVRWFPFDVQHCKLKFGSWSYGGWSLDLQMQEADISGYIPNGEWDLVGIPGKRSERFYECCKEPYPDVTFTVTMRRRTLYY
As to the kind of experiment: BLI, α7 nAChR captured on NTA sensor, peptide in solution.

These results are taken from patent EP4725956A1, “MODIFIED POLYPEPTIDE AND USE THEREOF IN FIELD OF ANALGESIA” (Nanjing Anji Biotechnology Co., Ltd., priority 2023, dated 2024).

Positions of bridges follow the written chain, without caps; N, C: chain ends. Non-standard residues stand in square brackets, D forms with d. Residues, ends and D or L forms follow the SMILES beside them. No end group written: not given here. Bip = N[C@@H](Cc1ccc(-c2ccccc2)cc1)C(=O)O; Hyp = O=C(O)[C@@H]1C[C@@H](O)CN1; Nle = CCCC[C@H](N)C(=O)O; Orn = NCCC[C@H](N)C(=O)O; Aib = CC(C)(N)C(=O)O

T1 sequence (Q9UGM1 23-238 limits assumed): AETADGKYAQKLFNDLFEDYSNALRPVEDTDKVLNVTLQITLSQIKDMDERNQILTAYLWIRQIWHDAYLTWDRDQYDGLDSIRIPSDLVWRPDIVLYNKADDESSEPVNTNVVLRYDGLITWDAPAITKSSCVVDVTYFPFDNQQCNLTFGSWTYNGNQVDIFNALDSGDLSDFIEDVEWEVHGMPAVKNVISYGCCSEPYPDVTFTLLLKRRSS

With `CCCC[C@H](NC(=O)[C@@H](NC(=O)[C@H]1CSSC[C@H](NC(=O)[C@H](CO)NC(=O)CN)C(=O)N[C@@H](CO)C(=O)N[C@H]([C@H](C)O)C(=O)N2C[C@H](O)C[C@H]2C(=O)N2C[C@H](O)C[C@H]2C(=O)N[C@@H](CO)C(=O)N1)C(C)C)C(=O)N[C@@H](Cc1ccc(-c2ccccc2)cc1)C(=O)N[C@@H](CCCN)C(N)=O` [AJ003-34, GSCS-(D-Thr)-Hyp-Hyp-S-(D-Cys)-V-Nle-Bip-Orn-NH2 (3,9 disulfide bond)] (H-GSCS[dT][Hyp][Hyp]S[dC]V[Nle][Bip][Orn]-NH2; disulfide 3-9), in data set [1], the half-life at 2 mg/mL was 61.9 h. Besides, in data set [2], the “ranking among the five candidate modified peptides” value is on record as “top three analgesic candidates”. The Kd at α7 nAChR [3] came to 360 nM.
Turning to `CCCC[C@H](NC(=O)[C@@H](NC(=O)[C@H]1CSSC[C@H](NC(=O)[C@H](CO)NC(=O)CN)C(=O)N[C@@H](CO)C(=O)N[C@H]([C@H](C)O)C(=O)N2C[C@H](O)C[C@H]2C(=O)N2C[C@H](O)C[C@H]2C(=O)NC(C)(C)C(=O)N1)C(C)C)C(=O)N[C@@H](Cc1ccccc1)C(=O)N[C@@H](CCCN)C(N)=O` [AJ003-39, GSCS-(D-Thr)-Hyp-Hyp-Aib-(D-Cys)-V-Nle-F-Orn-NH2 (3,9 disulfide bond)] (H-GSCS[dT][Hyp][Hyp][Aib][dC]V[Nle]F[Orn]-NH2; disulfide 3-9), the half-life at 2 mg/mL in data set [1] was 43 h. The Kd on α7 nAChR [3] stood at 410 nM.
Consider `CCCC[C@H](NC(=O)[C@@H](NC(=O)[C@H]1CSSC[C@H](NC(=O)[C@H](CO)NC(=O)CN)C(=O)N[C@@H](CO)C(=O)N[C@H]([C@H](C)O)C(=O)N2C[C@H](O)C[C@H]2C(=O)N2C[C@H](O)C[C@H]2C(=O)N[C@@H](C)C(=O)N1)C(C)C)C(=O)N[C@@H](Cc1c[nH]c2ccccc12)C(=O)N[C@@H](CCCN)C(N)=O` [AJ003-41, GSCS-(D-Thr)-Hyp-Hyp-A-(D-Cys)-V-Nle-W-Orn-NH2 (3,9 disulfide bond)] (H-GSCS[dT][Hyp][Hyp]A[dC]V[Nle]W[Orn]-NH2; disulfide 3-9), for which the half-life at 2 mg/mL in data set [1] is 30 h. Besides, binding on α7 nAChR [3] was put at a Kd of 110 nM.
On to `CCCC[C@H](NC(=O)[C@@H](NC(=O)[C@H]1CSSC[C@H](NC(=O)[C@H](CO)NC(=O)CN)C(=O)N[C@@H](CO)C(=O)N[C@H]([C@H](C)O)C(=O)N2C[C@H](O)C[C@H]2C(=O)N2C[C@H](O)C[C@H]2C(=O)NC(C)(C)C(=O)N1)C(C)C)C(=O)N[C@@H](Cc1c[nH]c2ccccc12)C(=O)N[C@@H](CCCN)C(N)=O` [AJ003-42, GSCS-(D-Thr)-Hyp-Hyp-Aib-(D-Cys)-V-Nle-W-Orn-NH2 (3,9 disulfide bond)] (H-GSCS[dT][Hyp][Hyp][Aib][dC]V[Nle]W[Orn]-NH2; disulfide 3-9), for which, in data set [1], the half-life at 2 mg/mL was 61.4 h. Further, the Kd on α7 nAChR [3] was determined as 21.2 nM.

B1: AJ003-20 (peptide)
peptide: GSCS[dT]PPS[dC]VAYS
modifications: disulfide 3-9
notes: Printed: GSCS-(D-Thr)-PPS-(D-Cys)-VAYS (3,9 disulfide bond)
Consider B1, for which the Kd in the data set with α9 nAChR came to 16.3 nM.

B2: AJ003-21 (peptide)
peptide: GSCS[dT]PPS[dC]VLAS
modifications: disulfide 3-9
notes: Printed: GSCS-(D-Thr)-PPS-(D-Cys)-VLAS (3,9 disulfide bond)
In the data set with α9 nAChR, B2 came in with a Kd of 514 nM.

B3: AJ003-13 (peptide)
peptide: GACS[dT]PPS[dC]VLYS
modifications: disulfide 3-9
notes: Printed: GACS-(D-Thr)-PPS-(D-Cys)-VLYS (3,9 disulfide bond)
In the data set with α9 nAChR, B3 came in with a Kd of 6690 nM.

B4: AJ003-18 (peptide)
peptide: GSCS[dT]PPA[dC]VLYS
modifications: disulfide 3-9
notes: Printed: GSCS-(D-Thr)-PPA-(D-Cys)-VLYS (3,9 disulfide bond)
Consider B4, for which the affinity with α9 nAChR, expressed as Kd, was 42.6 nM.

B5: AJ003-30 (peptide)
peptide: GSCS[dT]PPS[dC]VLWS
modifications: disulfide 3-9
notes: Printed: GSCS-(D-Thr)-PPS-(D-Cys)-VLWS (3,9 disulfide bond)
As to B5, in the data set with α7 nAChR [4], the Kd was determined as 27.8 nM. This counts as double-digit nanomolar.

B6: AJ003-24 (peptide)
peptide: GSCS[dT]PPG[dC]VLYS
modifications: disulfide 3-9
notes: Printed: GSCS-(D-Thr)-PPG-(D-Cys)-VLYS (3,9 disulfide bond)
Turning to B6, binding with α7 nAChR [4] was put at a Kd of 14000 nM.

B7: AJ003-19 (peptide)
peptide: GSCS[dT]PPS[dC]ALYS
modifications: disulfide 3-9
notes: Printed: GSCS-(D-Thr)-PPS-(D-Cys)-ALYS (3,9 disulfide bond)
Take B7: in the data set with α9 nAChR, binding was characterised by a dissociation constant (Kd) of 317 nM. This lies in the sub-micromolar range.

B8: AJ003-22 (peptide)
peptide: GSCS[dT]PPS[dC]VLYA
modifications: disulfide 3-9
notes: Printed: GSCS-(D-Thr)-PPS-(D-Cys)-VLYA (3,9 disulfide bond)
For the molecule B8, the Kd with α9 nAChR turned out to be 163 nM.

B9: AJ003-12 (peptide)
peptide: ASCS[dT]PPS[dC]VLYS
modifications: disulfide 3-9
notes: Printed: ASCS-(D-Thr)-PPS-(D-Cys)-VLYS (3,9 disulfide bond)
As for B9, the Kd with α9 nAChR is 31600 nM. This Kd is about 190-fold higher than that of the molecule before.

B10: AJ003-27 (peptide)
peptide: GSCS[dT]PPS[dC]VIYS
modifications: disulfide 3-9
notes: Printed: GSCS-(D-Thr)-PPS-(D-Cys)-VIYS (3,9 disulfide bond)
B10: binding in the data set with α7 nAChR [4] was put at a Kd of 323 nM. That is a sub-micromolar value.

B11: AJ003-1 (peptide)
peptide: GSCS[dT]PPS[dC]VLYS
modifications: disulfide 3-9
notes: Printed: GSCS-(D-Thr)-PPS-(D-Cys)-VLYS (3,9 disulfide bond)
Consider B11, for which the Kd is 22 nM in the data set with α7 nAChR [4] and 86 nM in the data set with α9 nAChR.

B12: AJ003-26 (peptide)
peptide: GSCS[dT]PPS[dC]GLYS
modifications: disulfide 3-9
notes: Printed: GSCS-(D-Thr)-PPS-(D-Cys)-GLYS (3,9 disulfide bond)
Turning to B12, the Kd with α7 nAChR [4] worked out at 6830 nM.

B13: AJ003-14 (peptide)
peptide: GSCA[dT]PPS[dC]VLYS
modifications: disulfide 3-9
notes: Printed: GSCA-(D-Thr)-PPS-(D-Cys)-VLYS (3,9 disulfide bond)
Take B13: the Kd with α9 nAChR came to 13900 nM.
